Patent publication US20140088023A1 (UNIVERSITY OF TOLEDO, published 2014)
Ends that are not written are not given here.

T1: soluble guanylyl cyclase alpha 1 (sGCα1) (UniProt Q02108 1-690)
T1 construct: The assay field of each row says which; No construct limits or tags are stated; also called endogenous sGCα1; E. coli-expressed sGCα1
T1 sequence (looked up): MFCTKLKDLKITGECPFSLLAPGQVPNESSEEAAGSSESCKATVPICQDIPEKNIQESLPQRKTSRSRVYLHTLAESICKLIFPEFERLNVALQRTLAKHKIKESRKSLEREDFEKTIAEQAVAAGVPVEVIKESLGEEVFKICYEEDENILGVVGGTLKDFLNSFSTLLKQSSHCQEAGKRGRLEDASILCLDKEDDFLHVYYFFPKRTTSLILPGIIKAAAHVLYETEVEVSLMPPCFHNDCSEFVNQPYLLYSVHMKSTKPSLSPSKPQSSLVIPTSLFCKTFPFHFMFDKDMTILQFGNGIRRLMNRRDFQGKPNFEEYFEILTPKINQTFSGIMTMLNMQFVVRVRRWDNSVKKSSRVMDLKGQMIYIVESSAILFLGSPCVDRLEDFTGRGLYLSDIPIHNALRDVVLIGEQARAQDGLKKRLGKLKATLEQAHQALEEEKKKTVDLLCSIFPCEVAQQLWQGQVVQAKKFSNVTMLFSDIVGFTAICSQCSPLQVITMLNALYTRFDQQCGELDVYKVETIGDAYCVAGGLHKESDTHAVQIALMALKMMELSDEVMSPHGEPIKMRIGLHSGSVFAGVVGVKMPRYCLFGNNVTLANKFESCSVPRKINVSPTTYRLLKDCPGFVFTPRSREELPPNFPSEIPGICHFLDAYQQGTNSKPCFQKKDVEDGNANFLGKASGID


Each binder was assayed against T1, soluble guanylyl cyclase alpha 1 (sGCα1) (assay: competitive binding assay).

binding result | Binder
no binding | KAFPRRRRRRRR [Peptide KP4-8R]

These binders were tested against T1, soluble guanylyl cyclase alpha 1 (sGCα1) (assay: cell-based or functional assay).

Binder | IC50 (µM), cytotoxicity, Day 3, LNCaP cell culture [µM] | IC50 (µM), cytotoxicity, Day 6, LNCaP cell culture [µM]
ACKAFRRRRRRRR-NH2 [Peptide FF5-F1A-8R] | 200 | 160
CKAFRRRRRRRR-NH2 [Peptide CF4-8R] | 62 | 120
FCKAARRRRRRRR-NH2 [Peptide FF5-F5A-8R] | 160 | 120
FMKAFRRRRRRRR-NH2 [Peptide FF5-C2M-8R] | 90 | 65
FCKARRRRRRRR [Peptide FA4-8R] | 43 | 90
FAKAFRRRRRRRR-NH2 [Peptide FF5-C2A-8R] | ~210 | 145
FCKAFPRRRRRRRR-NH2 [Peptide FP6-8R] | 22 | 35
TFCKAFRRRRRRRR-NH2 [Peptide TF6-8R] | 18 | 28
Ac-TFCKAFPFHIIRRRRRRRR-OH [Peptide A-8R] | 8 | 16
TFCRRRRRRRR [Peptide TC3-8R] | 72 | 140
FCAAFRRRRRRRR-NH2 [Peptide FF5-K3A-8R] | 60 | 38
FCKAFRRRRRRRR-NH2 [Peptide FF5-8R] | 22 | 40
TFCKAFPRRRRRRRR-NH2 [Peptide TP7-8R] | 16 | 23
